This note sets out measurements from the DeepSol protein solubility set.

The data set can be described thus: soluble on expression in E. coli; label from the status in PepcDB or PDB records.
On to “LPVPAGSRFEARVLGETRAMCCPGCQAVAEAIVAGGLESYYRHRSENAANPEALPKALSEELQLYDRPDVQGGFVRHEGELAETSLMIEGISCAACGWLIEKHLRQLPGVAEARLNLSNHRLHVRWQDSQLPLSQLLGELRQIGYAGHPYQPDRATERLAMENRR”, for which the “soluble on expression in E. coli” value is “not soluble”. Turning to “MSLNPKIITQYKNKKVDAASTMTDISGKNILMGFWHNWPSESGQGYQQGMFAEMPLTGIDKAYNVIAVAFMKGAGIPTFKPYNLSDEAFRAQVAELNAQGRAVLISLGGADAHIELHAGQEEALAYEIIRLVEVYGFDGLDIDLEQAAITFADNRTVLPAALRMVREHYETEGKHFIISMAPEFPYLRSAARDTPLLKEITTYFPFLKEAVAFLTSFRSGGAYLAYIEALEDLYDFIAPQYYNQGGDGIWVDELNLWVTQNNDAHKKEFLYYLTDSLIHGTRGFTKIPANRLAIGLPTNNDAAATGYVINPDDVKYALDTLQADGNPIRGLMTWSVNWDNGTPKVGEAYKWEFAKRYGYLTGGEGHHHHHH”, the “soluble on expression in E. coli” value was “soluble”. “MTVDTEKQQVVRPRNEIAAADCWDVSPLYPNREDWKADLDSFGLKTDGSPTWPELQATQYQLEDSESLLSLLTKLFSVERKLDKLYVYAHLVHDQDITNQEGVADLKSITHLHILFSEEISWIQPALIGLSEPIIAQHLSAPCLAPYRFYLEKIFRLSMHTGTPGEEKILASAFAPFEVASKAFSSLSDSEIPFGQAMDSEGNSHPLSHALASLYMQSTDRELRKTAYLAQCERYYNYRHTFANLLNGKIQAHLFYAKNKKYGSCLESALYHNNIPTTVYTNLMDIVKKNASLITKYYSLKQKALNIKDFHFYDVYAPLSQSEEKKYSYEEAVDLIYDSLSPLGTEYVDILKQGLTTEGWVDKYENLNKRSGAYSSGCYDSYPYILLNYTGTLYDVSVIAHEGGHSMHSYFSRKNQSFHDAQYPIFLAEIASTLNEMLLMDSMLKKSNSKEEKITILTRCLDTIFSTLFRQVLFASFEYEVHSAAEQGIPLTEEYLSSTYKNLQNDFYGGIITFDTLSNIEWARIPHFYYNFYVYQYATGIIAALCFAERILNKEDNALESYMNFLKSGGSDFPLEILKKSGLDMATSEPIYKAFSFIERKIQELSSLI”: the “soluble on expression in E. coli” value is “soluble”. To “MTFQASGTTGITTLTVTEECRVQVGNVTATLARSKLKDDTAIGVIGVTALGCNGLQAALQADPDNYDATNLYMTSRNHDKLNVKLKATDGSSWTYGNGVFYKTEGGNWGGHVGISVDGNQTDKPTGEYTLNLTGGYWTNDNKQTFQASGTTGITTLTLEHHHHHH” belongs “soluble”. To “MPLTFAHSFADAVPSLSVPWRAEQWPDPRIIVFNHELGQELGIDEASLLSNITQQGHAQAYSGHQFGQFNPLLGDGRALVLGDCAQTNAPHGQFEISLKGSGPTPFARRGDGRATLGPMLREYLISEALHGLGIPTTRSLAVITTGTDVQRERLLPGAVVVRVAQNHLRVGSVQCAAMRDDDSLAALVRYALSSHEDGVSDAEAAGLLLRRVSTSQAKLVAQWMRFGFVHGVMNTDNVTLSGQTIDFGPCAFIDSFHPQAVFSSIDSHGRYSFGRQPSIMGWNIARLAEALLPLMSIDEARNIVHEFPDMYRRSWLDEMADAVGISPDDDHAAGVLDDLVALLDVHRPDYAQFMRSLSDGTTVSLFPWAQQWEAEVSSLRVAAPRNPVYVPRNYLVEDALEHAMNADMSVFSLLVEAGKNPYLREKRFEKLENPAPETWQDYVTYCGTLEHHHHHH” belongs “soluble”; to “MGSDKIHHHHHHMIQLHVYEEIVNFKEEVTPFLEKNEQENNLILGVLQMVHQPIFMGIAKQGEEIAVVFLQTEEKKQIIVATSEISGVAIKELAKELTKIYPDIPGLIGDKKVVQHLAEEIAVLENKKTNVVMEQGVYELKEVKKKPSEDGFFREVSSDELTLIEEWIYQFCEDVNLPTTKEEAKQTAHTLITNHRLFGLEVDGKLVSVAAKTRPTKNNITVNFVYTPKEARKKGYASNCVAALSQRMLDEGYKTTTLYTDLANPTSNKIYQEIGYEQIAESVLIFLEK”, “not soluble”; to “MSAKAISEQTGKELLYKFICTTSAIQNRFKYARVTPDTDWARLLQDHPWLLSQNLVVKPDQLIKRRGKLGLVGVNLTLDGVKSWLKPRLGQEATVGKATGFLKNFLIEPFVPHSQAEEFYVCIYATREGDYVLFHHEGGVDVGDVDAKAQKLLVGVDEKLNPEDIKKHLLVHAPEDKKEILASFISGLFNFYEDLYFTYLEINPLVVTKDGVYVLDLAAKVDATADYICKVKWGDIEFPPPFGREAYPEEAYIADLDAKSGASLKLTLLNPKGRIWTMVAGGGASVVYSDTICDLGGVNELANYGEYSGAPSEQQTYDYAKTILSLMTREKHPDGKILIIGGSIANFTNVAATFKGIVRAIRDYQGPLKEHEVTIFVRRGGPNYQEGLRVMGEVGKTTGIPIHVFGTETHMTAIVGMALGHRPIP”, “soluble”. To “MSIQHFRVALIPFFAAFCLPVFAHPETLVKVKDAEDQLGARVGYIELDLNSGKILESFRPEERFPMMSTFKVLLCGAVLSRIDAGQEQLGRRIHYSQNDLVEYSPVTEKHLTDGMTVRELCSAAITMSDNTAANLLLTTIGGPKELTAFLHNMGDHVTRLDRWEPELNEAIPNDERDTTMPVAMATTLRKLLTGELLTLASRQQLIDWMEADKVAGPLLRSALPAGWFIADKSGAGERGSRGIIAALGPDGKPSRIVVIYTTGSQATMDERNRQIAEIGASLIKHW” belongs “soluble”; to “MAHHHHHHMSELQAAAGVFGRGTAAGDAIYRCYARPTKESTLDPELLARLQKMRLEREAAEAALFRPKPVPKSKAMISRPRVGLGRRISEEEIARRRLDALPHKKREESIQRELRAFGRPSLLPPLYKSPPITVAEKERLRQIFQFGELPPKPLNFTGANRVRYALIDRRFRLKDRFETLKKHVDALREELRQLRQQPQKSALPETVADGKGNENEIIPSGAEIIRRFHRRDPVMALERRMLEQELTTSIGEVLQEMKEIDFDLRQLDENEAKRYIPKP”, “not soluble”; to “MKITHCKLKKKVQKELLRFFVLEVTARSAADILGIHPNSAVLFYRKIRTVINHHLALAADEVFEGPVEPDESDFGGRRKGRRGRGAAGKVVVFGILKRNGRGYTVVVDNAKSETLLPVIKKKIMPDSIVYTDSLSSCDKLDVSGFIHYRINHSKEFADRQNHINGIENFWNQAKRVLRKYNGIDRKSFPLFLKECEFRFNFGTPSQQLKILRDWCGILEHHHHHH”, “soluble”. Consider “VADRLIVKGAREHNLRSVDLDLPRDALIVFTGLSGSGKSSLAFDTIFAEGQRRYVESLSAYARQFLGQMDKPDVDFIEGLSPAVSIDQKSTNRNPRSTVGTITEVYDYLRLLYARAGTPHCPTCGERVARQTPQQIVDQVLAMPEGTRFLVLAPVVRTRKGEFADLFDKLNAQGYSRVRVDGVVHPLTDPPKLKKQEKHDIEVVVDRLTVKAAAKRRLTDSVETALNLADGIVVLEFVDHELGAPHREQRFSEKLACPNGHALAVDDLEPRSFSFNSPYGACPECSGLGIRKEVDPELVVPDPDRTLAQGAVAPWSNGHTAEYFTRMMAGLGEALGFDVDTPWRKLPAKARKAILEGADEQVHVRYRNRYGRTRSYYADFEGVLAFLQRKMSQTESEQMKERYEGFMRDVPCPVCAGTRLKPEILAVTLAGESKGEHGAKSIAEVCELSIADCADFLNALTLGPREQAIAGQVLKEIRSRLGFLLDVGLEYLSLSRAAATLSGGEAQRIRLATQIGSGLVGVLYVLDEPSIGLHQRDNRRLIETLTRLRDLGNTLIVVEHDEDTIEHADWIVDIGPGAGEHGGRIVHSGPYDELLRNKDSITGAYLSGRESIEIPAIRRSVDPRRQLTVVGAREHNLRGIDVSFPLGVLTSVTGVSGSGKSTLVNDILAAVLANRLNGARQVPGRHTRVTGLDYLDKLVRVDQSPIGRTPRSNPATYTGVFDKIRTLFAATTEAKVRGYQPGRFSFNVKGGRCEACTGDGTIKIEMNFLPDVYVPCEVCQGARYNRETLEVHYKGKTVSEVLDMSIEEAAEFFEPIAGVHRYLRTLVDVGLGYVRLGQPAPTLSGGEAQRVKLASELQKRSTGRTVYILDEPTTGLHFDDIRKLLNVINGLVDKGNTVIVIEHNLDVIKTSDWIIDLGPEGGAGGGTVVAQGTPEDVAAVPASYTGKFLAEVVGGGASAATSRSNRRRNVSA”, for which the “soluble on expression in E. coli” value is given as “not soluble”. To “MGSDKIHHHHHHMHMKLDDITYMNPWWEGKEDYHVKQWEKQKVHWEPKWIREISLKPFSLNFVLGPRQVGKTTGIKLLIQKILEENPPESVLYLNLEILPTYRELLDIIREFQELKKEEGIKTGYIFLDEASSLEGWWRGVKPLIDSGLLENDVITVTGSSSLRVRRDIELFPGRRGGGKTLEVMPLSFPEYARVMGLKKHKLEGSKVIKLFEKYIQTGGFPGSINGFPMEDLLGAYIGEFVRFGKSLEIAKEIFSALIRSAPSATSFRALAEMTSGYSYKVVQDYIEFFRDLYILGMAYLKQGNQVMYRREKKFFFRDPLLAKLFSLWSGTEIGKDALYEWIVQEHVFRKFGEIHYFRNSYEIDIIASDMKIEVKAGKAHRKYPRGVKVLEKEDVPFFLIELYNEDC” belongs “not soluble”; to “MDVVILDTGCANLSSVTYAVQRLGYTPVISRDPAVVLRADKLFMPGVGTAHAAMEQLRQRELIELIKSCTQPVLGICLGMQLLATSSEESGGITTLGMIDAPVKKMTDFGLPLPHMGWNQITAQAGNHLFRGIPDGTYFYFVHGYAMPICPNTIAQTNYGEPFTAAVEKDNFFGVQFHPERSGAAGAQLMKNFLEM”, “not soluble”; to “MSNFSEGEIFIANIEKKSLECRENDEIVVLKICELCNIIYPIFNKIFGNGFVGDTLKKDLKNSSSQVQRAIEKFPEETKYVSMLYSYNINKYENMEKLKRDLDNGIISFLWMKRTLEFIITFLEKCYITCSETKLSICAQEAYNEVLKKYHGFITSKIVKLCLKLSPTKDILTKKLGFQTHQQASTVLQKCLSITKPLVRDISVTIEKFNCDFEEKI”, “not soluble”. Turning to “MSRLSEPSPYVEFDRRQWRALRMSTPLALTEEELVGLRGLGEQIDLLEVEEVYLPLARLIHLQVAARQRLFAATAEFLGEPQQNPDRPVPFIIGVAGSVAVGKSTTARVLQALLARWDHHPRVDLVTTDGFLYPNAELQRRNLMHRKGFPESYNRRALMRFVTSVKSGSDYACAPVYSHLHYDIIPGAEQVVRHPDILILEGLNVLQTGPTLMVSDLFDFSLYVDARIEDIEQWYVSRFLAMRTTAFADPESHFHHYAAFSDSQAVVAAREIWRTINRPNLVENILPTRPRATLVLRKDADHSINRLRLRKL”, the “soluble on expression in E. coli” value is recorded as “soluble”. Turning to “ARTVVLITGCSSGIGLHLAVRLASDPSQSFKVYATLRDLKTQGRLWEAARALACPPGSLETLQLDVRDSKSVAAARERVTEGRVDVLVCNAGLGLLGPLEALGEDAVASVLDVNVVGTVRMLQAFLPDMKRRGSGRVLVTGSVGGLMGLPFNDVYCASKFALEGLCESLAVLLLPFGVHLSLIECGPVHTAFMEKVLGSPEEVLDRTDIHTFHRFYQYLAHSKQVFREAAQNPEEVAEVFLTALRAPKPTLRYFTTERFLPLLRMRLDDPSGSNYVTAMHREVFGDVPAKAEAGAEAGGGAGPGAEDEAGRSAVGDPELGDPPAAPQ”, the “soluble on expression in E. coli” value is “soluble”. On to “MRAMYDLLKQKADVWDLFTRKKEYQPSKLDEHGRFFFTEEDLKNASSPEVSRYLVENGLKVEFPENKTFAVCLTHDMDDIYPPFSHSLLSSVSCLKSLDFRGLTAPFLWRFKGPEYSPYLNFSDIMDLEEGFGAKSSFYFLASREDPVRFRYDIEDLENLLGDISDRGWEAGLHGGYYSYDNLEALNNEKKSLEKVLGKKVLGFRNHYLRFKTPETWELLADAGFGYDSTFGYSELAGFRNGMCHPFKPYNLNKEREINILEIPLTVMDVALFKASSSFEEAWRCTKDLIDTAAGLNGVITLLWHNFVFGCSFRKDWIKLYEKALQYCSEKGAWITSGEEIYRWWENGAMAGDPLEHHHHHH”, for which the “soluble on expression in E. coli” value was “soluble”.
